B1: WSB1 (parent)
chain: DLKDDGNMMKVLRGHQNWVYSCAF
B2: ZNF193 (parent)
chain: QCIECGKSFNRHCNLIRHQKIHTV

Variants of: B1
Assay: protein stability index of a GFP-peptide fusion (GPS, HEK-293T) (PSI 1-6); higher = more stable
Details: c terminus: a fixed tail appended
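Also: lentivirally expressed fusions sorted by FACS into six bins by GFP to DsRed ratio, PSI derived from sequencing read proportions per bin multiplied by bin number.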

Variant	protein stability index
NLKDDGNMMKVLRGHQNWVYSCAF [D1N]	2.02
QLKDDGNMMKVLRGHQNWVYSCAF [D1Q]	1.38
RLKDDGNMMKVLRGHQNWVYSCAF [D1R]	1
MLKDDGNMMKVLRGHQNWVYSCAF [D1M]	2.04
LLKDDGNMMKVLRGHQNWVYSCAF [D1L]	2.52
YLKDDGNMMKVLRGHQNWVYSCAF [D1Y]	1.78
TLKDDGNMMKVLRGHQNWVYSCAF [D1T]	2.3
ALKDDGNMMKVLRGHQNWVYSCAF [D1A]	1.62
PLKDDGNMMKVLRGHQNWVYSCAF [D1P]	1.59
HLKDDGNMMKVLRGHQNWVYSCAF [D1H]	1.78
KLKDDGNMMKVLRGHQNWVYSCAF [D1K]	2.65
ELKDDGNMMKVLRGHQNWVYSCAF [D1E]	2.24
VLKDDGNMMKVLRGHQNWVYSCAF [D1V]	1.89
FLKDDGNMMKVLRGHQNWVYSCAF [D1F]	2.47
GLKDDGNMMKVLRGHQNWVYSCAF [D1G]	1.76
DIKDDGNMMKVLRGHQNWVYSCAF [L2I]	1.69
DKKDDGNMMKVLRGHQNWVYSCAF [L2K]	1.54
DGKDDGNMMKVLRGHQNWVYSCAF [L2G]	1.91
DDKDDGNMMKVLRGHQNWVYSCAF [L2D]	2.39
DTKDDGNMMKVLRGHQNWVYSCAF [L2T]	2.08
DFKDDGNMMKVLRGHQNWVYSCAF [L2F]	1.59
DAKDDGNMMKVLRGHQNWVYSCAF [L2A]	1.47
DCKDDGNMMKVLRGHQNWVYSCAF [L2C]	2.13
DEKDDGNMMKVLRGHQNWVYSCAF [L2E]	1.95
DSKDDGNMMKVLRGHQNWVYSCAF [L2S]	1.34
DVKDDGNMMKVLRGHQNWVYSCAF [L2V]	1.29
DPKDDGNMMKVLRGHQNWVYSCAF [L2P]	1.82
DMKDDGNMMKVLRGHQNWVYSCAF [L2M]	1.65

Variant	protein stability index
DQKDDGNMMKVLRGHQNWVYSCAF [L2Q]	1.83
DRKDDGNMMKVLRGHQNWVYSCAF [L2R]	2.05
DNKDDGNMMKVLRGHQNWVYSCAF [L2N]	2.53
DYKDDGNMMKVLRGHQNWVYSCAF [L2Y]	1.93
DHKDDGNMMKVLRGHQNWVYSCAF [L2H]	1.68
DLKFDGNMMKVLRGHQNWVYSCAF [D4F]	2.77
DLKGDGNMMKVLRGHQNWVYSCAF [D4G]	1.16
DLKHDGNMMKVLRGHQNWVYSCAF [D4H]	1.66
DLKEDGNMMKVLRGHQNWVYSCAF [D4E]	1.91
DLKCDGNMMKVLRGHQNWVYSCAF [D4C]	2.88
DLTDDGNMMKVLRGHQNWVYSCAF [K3T]	2.65
DLYDDGNMMKVLRGHQNWVYSCAF [K3Y]	1.84
DLFDDGNMMKVLRGHQNWVYSCAF [K3F]	2.12
DLQDDGNMMKVLRGHQNWVYSCAF [K3Q]	1.37
DLNDDGNMMKVLRGHQNWVYSCAF [K3N]	1.43
DLPDDGNMMKVLRGHQNWVYSCAF [K3P]	1.07
DLWDDGNMMKVLRGHQNWVYSCAF [K3W]	2.49
DLDDDGNMMKVLRGHQNWVYSCAF [K3D]	2.57
DLLDDGNMMKVLRGHQNWVYSCAF [K3L]	1.83
DLRDDGNMMKVLRGHQNWVYSCAF [K3R]	1.48
DLGDDGNMMKVLRGHQNWVYSCAF [K3G]	2.54
DLADDGNMMKVLRGHQNWVYSCAF [K3A]	2.75
DLCDDGNMMKVLRGHQNWVYSCAF [K3C]	2.27
DLEDDGNMMKVLRGHQNWVYSCAF [K3E]	1.9
DLHDDGNMMKVLRGHQNWVYSCAF [K3H]	1.93
DLMDDGNMMKVLRGHQNWVYSCAF [K3M]	2.06
DLSDDGNMMKVLRGHQNWVYSCAF [K3S]	1.77

Variants of: B2
Assay: as above
Details: c terminus: a fixed tail appended

Variant	protein stability index
QCIECGKSFNRHCNLIYHQKIHTV [R17Y]	2.52
QCIECGKSFNRHCNLIRHQKIHGV [T23G]	3.31
QCIECGKSFNRHCNLIRHQKIHFV [T23F]	2.85
QCIECGKSFNRHCNLIRHQKIHSV [T23S]	3.68
QCIECGKSFNRHCNLIRHQKIHKV [T23K]	3.47
QCIECGKSFNRHCNLIRHQKIHHV [T23H]	3.9
QCIECGKSFNRHCNLIRHQKIHYV [T23Y]	3.31
QCIECGKSFNRHCNLIRHQKIHPV [T23P]	3.23
QCIECGKSFNRHCNLIRHQKIHCV [T23C]	3.58
QCIECGKSFNRHCNLIRHQKIHQV [T23Q]	4.09
QCIECGKSFNRHCNLIRHQKIHIV [T23I]	2.6
QCIECGKSFNRHCNLIRHQKIHRV [T23R]	3.91
QCIECGKSFNRHCNLIRHQKIHLV [T23L]	2.7
QCIECGKSFNRHCNLIRHQKIHMV [T23M]	3.33
QCIECGKSFNRHCNLIRHQKIHVV [T23V]	3.26
QCIECGKSFNRHCNLIRHQKIHDV [T23D]	3.13
QCIECGKSFNRHCNLIRHQKIHWV [T23W]	2.56
QCIECGKSFNRHCNLIRHQKIHEV [T23E]	4.38
QCIECGKSFNRHCNLIRHQKIHNV [T23N]	4.08
QCIECGKSFNRHCNLIRHQKIHTT [V24T]	3.84
QCIECGKSFNRHCNLIRHQKIHTW [V24W]	2.75
QCIECGKSFNRHCNLIRHQKIHTQ [V24Q]	3.87
QCIECGKSFNRHCNLIRHQKIHTR [V24R]	3.83

Variant	protein stability index
QCIECGKSFNRHCNLIRHQKIHTY [V24Y]	3.4
QCIECGKSFNRHCNLIRHQKIHTH [V24H]	3.83
QCIECGKSFNRHCNLIRHQKIHTE [V24E]	4.36
QCIECGKSFNRHCNLIRHQKIHTM [V24M]	4.19
QCIECGKSFNRHCNLIRHQKIHTN [V24N]	4.22
QCIECGKSFNRHCNLIRHQKIHTC [V24C]	3.99
QCIECGKSFNRHCNLIRHQKIHTA [V24A]	4.26
QCIECGKSFNRHCNLIRHQKIHTF [V24F]	3.41
QCIECGKSFNRHCNLIRHQKIHTP [V24P]	4.21
QCIECGKSFNRHCNLIRHQKIHTL [V24L]	3.43
QCIECGKSFNRHCNLIRHQKIHTD [V24D]	3.83
QCIECGKSFNRHCNLIRHQKIHTK [V24K]	4.68
QCIECGKSFNRHCNLIRHQKIHTI [V24I]	2.8
QCIECGKSFNRHCNLIRHQKIHTG [V24G]	3.56
QCIECGKSFNRHCNLIRHQKIHTS [V24S]	4.21
QCIECGKSFNRHCNLIRHQKICTV [H22C]	4.83
QCIECGKSFNRHCNLIRHQKIITV [H22I]	2.25
QCIECGKSFNRHCNLIRHQKIDTV [H22D]	2.08
QCIECGKSFNRHCNLIRHQKISTV [H22S]	2.45
QCIECGKSFNRHCNLIRHQKIGTV [H22G]	2.94
QCIECGKSFNRHCNLIRHQKIMTV [H22M]	2.34
QCIECGKSFNRHCNLIRHQKIPTV [H22P]	2.62
QCIECGKSFNRHCNLIRHQKIVTV [H22V]	2.32

Variant	protein stability index
QCIECGKSFNRHCNLIRHQKIKTV [H22K]	2.41
QCIECGKSFNRHCNLIRHQKITTV [H22T]	2.11
QCIECGKSFNRHCNLIRHQKIWTV [H22W]	1.74
QCIECGKSFNRHCNLIRHQKIETV [H22E]	2.63
QCIECGKSFNRHCNLIRHQKIQTV [H22Q]	2.7
QCIECGKSFNRHCNLIRHQKIRTV [H22R]	2.89
QCIECGKSFNRHCNLIRHQKILTV [H22L]	2.88
QCIECGKSFNRHCNLIRHQKINTV [H22N]	2.78
QCIECGKSFNRHCNLIRHQKIYTV [H22Y]	1.56
QCIECGKSFNRHCNLIRHQKIFTV [H22F]	1.63
QCIECGKSFNRHCNLIRHQKIATV [H22A]	2.76
QCIECGKSFNRHCNLIRCQKIHTV [H18C]	2.55
QCIECGKSFNRHCNLIRDQKIHTV [H18D]	1.97
QCIECGKSFNRHCNLIRVQKIHTV [H18V]	1.45
QCIECGKSFNRHCNLIRIQKIHTV [H18I]	2
QCIECGKSFNRHCNLIREQKIHTV [H18E]	2.33
QCIECGKSFNRHCNLIRNQKIHTV [H18N]	2.31
QCIECGKSFNRHCNLIRRQKIHTV [H18R]	1.87
QCIECGKSFNRHCNLIRMQKIHTV [H18M]	1.65
QCIECGKSFNRHCNLIRYQKIHTV [H18Y]	1.41
QCIECGKSFNRHCNLIRWQKIHTV [H18W]	2.21
QCIECGKSFNRHCNLIRAQKIHTV [H18A]	2.45
QCIECGKSFNRHCNLIRQQKIHTV [H18Q]	2.24

Variant	protein stability index
QCIECGKSFNRHCNLIRPQKIHTV [H18P]	2.05
QCIECGKSFNRHCNLIRGQKIHTV [H18G]	2.91
QCIECGKSFNRHCNLIRTQKIHTV [H18T]	1.66
QCIECGKSFNRHCNLIRLQKIHTV [H18L]	1.71
QCIECGKSFNRHCNLIRSQKIHTV [H18S]	2.36
QCIECGKSFNRHCNLIRFQKIHTV [H18F]	2.4
QCIECGKSFNRHCNLIRKQKIHTV [H18K]	2.38
QCIECGKSFNRHCNLIRHCKIHTV [Q19C]	3.78
QCIECGKSFNRHCNLIRHWKIHTV [Q19W]	2.25
QCIECGKSFNRHCNLIRHGKIHTV [Q19G]	2.5
QCIECGKSFNRHCNLIRHDKIHTV [Q19D]	2.03
QCIECGKSFNRHCNLIRHNKIHTV [Q19N]	2.81
QCIECGKSFNRHCNLIRHMKIHTV [Q19M]	3.48
QCIECGKSFNRHCNLIRHTKIHTV [Q19T]	2.79
QCIECGKSFNRHCNLIRHSKIHTV [Q19S]	3.46
QCIECGKSFNRHCNLIRHYKIHTV [Q19Y]	2.59
QCIECGKSFNRHCNLIRHFKIHTV [Q19F]	2.73
QCIECGKSFNRHCNLIRHHKIHTV [Q19H]	2.72
QCIECGKSFNRHCNLIRHAKIHTV [Q19A]	2.84
QCIECGKSFNRHCNLIRHIKIHTV [Q19I]	2.8
QCIECGKSFNRHCNLIRHKKIHTV [Q19K]	3.27
QCIECGKSFNRHCNLIRHRKIHTV [Q19R]	2.98
QCIECGKSFNRHCNLIRHEKIHTV [Q19E]	3.73

Variant	protein stability index
QCIECGKSFNRHCNLIRHLKIHTV [Q19L]	2.75
QCIECGKSFNRHCNLIRHPKIHTV [Q19P]	1.99
QCIECGKSFNRHCNLIRHVKIHTV [Q19V]	2.5
QCIECGKSFNRHCNLIRHQYIHTV [K20Y]	2.2
QCIECGKSFNRHCNLIRHQQIHTV [K20Q]	3.5
QCIECGKSFNRHCNLIRHQMIHTV [K20M]	3.13
QCIECGKSFNRHCNLIRHQPIHTV [K20P]	2.7
QCIECGKSFNRHCNLIRHQVIHTV [K20V]	2.66
QCIECGKSFNRHCNLIRHQLIHTV [K20L]	2.93
QCIECGKSFNRHCNLIRHQGIHTV [K20G]	2.38
QCIECGKSFNRHCNLIRHQHIHTV [K20H]	2.9
QCIECGKSFNRHCNLIRHQEIHTV [K20E]	3.29
QCIECGKSFNRHCNLIRHQNIHTV [K20N]	2.61
QCIECGKSFNRHCNLIRHQRIHTV [K20R]	3.4
QCIECGKSFNRHCNLIRHQWIHTV [K20W]	2.22
QCIECGKSFNRHCNLIRHQSIHTV [K20S]	3.3
QCIECGKSFNRHCNLIRHQCIHTV [K20C]	3.47
QCIECGKSFNRHCNLIRHQTIHTV [K20T]	2.63
QCIECGKSFNRHCNLIRHQAIHTV [K20A]	3.85
QCIECGKSFNRHCNLIRHQFIHTV [K20F]	2.95
QCIECGKSFNRHCNLIRHQDIHTV [K20D]	2.83
QCIECGKSFNRHCNLIRHQIIHTV [K20I]	2.2
QCIECGKSFNRHCNLIRHQKTHTV [I21T]	4.39

Variant	protein stability index
QCIECGKSFNRHCNLIRHQKRHTV [I21R]	3.81
QCIECGKSFNRHCNLIRHQKHHTV [I21H]	3.77
QCIECGKSFNRHCNLIRHQKSHTV [I21S]	4
QCIECGKSFNRHCNLIRHQKYHTV [I21Y]	3.6
QCIECGKSFNRHCNLIRHQKFHTV [I21F]	3.15
QCIECGKSFNRHCNLIRHQKDHTV [I21D]	3.93
QCIECGKSFNRHCNLIRHQKAHTV [I21A]	4
QCIECGKSFNRHCNLIRHQKLHTV [I21L]	3.48
QCIECGKSFNRHCNLIRHQKPHTV [I21P]	3.1
QCIECGKSFNRHCNLIRHQKKHTV [I21K]	4.25
QCIECGKSFNRHCNLIRHQKVHTV [I21V]	3.74
QCIECGKSFNRHCNLIRHQKEHTV [I21E]	4.1
QCIECGKSFNRHCNLIRHQKWHTV [I21W]	3.55
QCIECGKSFNRHCNLIRHQKQHTV [I21Q]	4.49
QCIECGKSFNRHCNLIRHQKCHTV [I21C]	3.85
QCIECGKSFNRHCNLIRHQKNHTV [I21N]	3.52
QCIECGKSFNRHCNLIRHQKMHTV [I21M]	3.72
QCIECGKSFNRHCNLIRHQKGHTV [I21G]	3.51

Source: the supplement of paper PMC10567573
